Results: US20210332110A1 (ROCKEFELLER UNIVERSITY, published 2021)

B1: C121 (antibody, V domains shown)
VH: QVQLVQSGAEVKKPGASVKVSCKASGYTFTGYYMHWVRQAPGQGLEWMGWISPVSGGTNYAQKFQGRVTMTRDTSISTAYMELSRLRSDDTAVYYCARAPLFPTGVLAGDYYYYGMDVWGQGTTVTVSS
VL: QSALTQPASVSGSPGQSITISCTGTSSDVGSYNLVSWYQQHPGKAPKLMIYEGSKRPSGVSNRFSGSKSGNTASLTISGLQAEDEADYYCCSYAGSSTLVFGGGTKLTVL
B2: C144 (antibody, V domains shown)
VH: EVQLVESGGGLIQPGGSLRLSCAASGFTVSNNYMSWVRQAPGKGLEWVSVIYSGGSTYYADSVKGRFTISRDKSKNTLYLQMNRLRAEDTAVYYCAREGEVEGYNDFWSGYSRDRYYFDYWGQGTLVTVSS
VL: QSALTQPASVSGSPGQSITISCTGTSSDVGGYNYVSWYQQHPGKAPKLMIYDVSNRPSGVSNRFSGSKSGNTASLTISGLQAEDEADYYCSSYTSSSTRVFGTGTKVTVL

Biological target: Spike (S) protein of authentic SARS-CoV-2, strain USA-WA1/2020 (SARS-CoV-2, UniProt P0DTC2 14-1273)
Test: cell-based or functional assay

Binder | IC50, neutralization of authentic SARS-CoV-2 [ng/mL]
B1 | 1.64
B2 | 2.55
